Assay results as given in paper PMC3935945, “Insight into Highly Conserved H1 Subtype-Specific Epitopes in Influenza Virus Hemagglutinin” (PLoS ONE, 2014).

Assays:
Assay in all cases: ELISA
[1] = target: T1, recombinant hemagglutinin (HA) of 2009 pandemic virus A/Korea/01/2009 (KR01) (Influenza A virus A/Korea/01/2009 (H1N1), strain); conditions: both partners purified
T1 construct: also called KR01 HA; H1N1 HA

[2] = target: T2, hemagglutinin (HA) of H1N1 A/Thailand/CU44/2006 (CU44) (Influenza A virus A/Thailand/CU44/2006 …, UniProt A7LI25, strain); conditions: both partners purified
T2 construct: also called CU44 HA

[3] = target: T3, HA from A/California/07/2009(H1N1) (Influenza A virus A/California/07/2009 …, UniProt C3W5X2, strain)
T3 construct: also called CA07

[4] = target: T4, HA from A/Brisbane/59/2007(H1N1) (Influenza A virus A/Brisbane/59/2007 …, UniProt D5F1Q8, strain)
T4 construct: also called BR59

[5] = target: T5, HA from A/California/04/2009(H1N1) (Influenza A virus A/California/04/2009 …, UniProt C3W5S1, strain)
T5 construct: also called CA04

Measured: binding result

B1: H1-specific monoclonal antibody GC0587 (antibody, V domains shown)
VH: VKLQQSGGGVVQPGGSLRLSCAASGFTFSDYDMSWIRQAPGKGLEWVSGILGGSERSYYRDSVKGRFTISRDNSRKTLYLQMNSLRAEDTAVYYCARHGSPGYTLYAWDYWGQGTMVTVSS
VL: DIQMTQSPASLAVSPGQRATITCRASESVSNYGINFINWFQQKPGQPPKLLIYTASNKGTGVPARFSGSGSGTDFTLTINPVEAEDTANYFCQQTKEVPYTFGGGTKLEIK
notes: copies: 2 + 2
binds: all assays above

B2: H1-specific monoclonal antibody GC0757 (antibody, V domains shown)
VH: VKLQESGAVVQPGGSLRLSCAASGFTGSDYDMSWIRQAPGKGLEWVSGILGGSERSYYRDSVKGRSTISRDNSRKTLYLEMNSLRAEDTAVYYCARHSWGAYVQYGMDGWGQGTTVTVSS
VL: DIQMTQSPASLAVSPGQRATITCRASESVSNYGINFINWFQQKPGQPPKLLIYTASNKGTGVPARFSGSGSGTDFTLTINPVEAEDTANYFCQQTKEVPYGTFGGTKLEIK
notes: copies: 2 + 2
binds: all assays above
